Measured values published in publication PMC3939451.

Experiments:
[1] = CHX chase, immunoblot, percent remaining; settings: glycan lost; control: WT-ABCG8
[2] = steady-state immunoblot, HEK293; settings: glycan lost

B1: ABCG8: N619Q (protein)
parent chain: MAGKAAEERGLPKGATPQDTSGLQDRLFSSESDNSLYFTYSGQPNTLEVRDLNYQVDLASQVPWFEQLAQFKMPWTSPSCQNSCELGIQNLSFKVRSGQMLAIIGSSGCGRASLLDVITGRGHGGKIKSGQIWINGQPSSPQLVRKCVAHVRQHNQLLPNLTVRETLAFIAQMRLPRTFSQAQRDKRVEDVIAELRLRQCADTRVGNMYVRGLSGGERRRVSIGVQLLWNPGILILDEPTSGLDSFTAHNLVKTLSRLAKGNRLVLISLHQPRSDIFRLFDLVLLMTSGTPIYLGAAQHMVQYFTAIGYPCPRYSNPADFYVDLTSIDRRSREQELATREKAQSLAALFLEKVRDLDDFLWKAETKDLDEDTCVESSVTPLDTNCLPSPTKMPGAVQQFTTLIRRQISNDFRDLPTLLIHGAEACLMSMTIGFLYFGHGSIQLSFMDTAALLFMIGALIPFNVILDVISKCYSERAMLYYELEDGLYTTGPYFFAKILGELPEHCAYIIIYGMPTYWLANLRPGLQPFLLHFLLVWLVVFCCRIMALAAAALLPTFHMASFFSNALYNSFYLAGGFMINLSSLWTVPAWISKVSFLRWCFEGLMKIQFSRRTYKMPLGNLTIAVSGDKILSVMELDSYPLYAIYLIVIGLSGGFMVLYYVSLRFIKQKPSQDW
For B1, the degradation_or_half_life [1] was “decreases, 44.40% vs. 43.95% at 2 hrs; 26.01% vs. 29.36% at 4 hrs” and the expression_or_secretion ([2]; control: WT-ABCG8) was “decreases”.

B2: ABCG5: N584Q (protein)
parent chain: MGDLSSLTPGGSMGLQVNRGSQSSLEGAPATAPEPHSLGILHASYSVSHRVRPWWDITSCRQQWTRQILKDVSLYVESGQIMCILGSSGSGKTTLLDAMSGRLGRAGTFLGEVYVNGRALRREQFQDCFSYVLQSDTLLSSLTVRETLHYTALLAIRRGNPGSFQKKVEAVMAELSLSHVADRLIGNYSLGGISTGERRRVSIAAQLLQDPKVMLFDEPTTGLDCMTANQIVVLLVELARRNRIVVLTIHQPRSELFQLFDKIAILSFGELIFCGTPAEMLDFFNDCGYPCPEHSNPFDFYMDLTSVDTQSKEREIETSKRVQMIESAYKKSAICHKTLKNIERMKHLKTLPMVPFKTKDSPGVFSKLGVLLRRVTRNLVRNKLAVITRLLQNLIMGLFLLFFVLRVRSNVLKGAIQDRVGLLYQFVGATPYTGMLNAVNLFPVLRAVSDQESQDGLYQKWQMMLAYALHVLPFSVVATMIFSSVCYWTLGLHPEVARFGYFSAALLAPHLIGEFLTLVLLGIVQNPNIVNSVVALLSIAGVLVGSGFLRNIQEMPIPFKIISYFTFQKYCSEILVVNEFYGLNFTCGSSNVSVTTNPMCAFTQGIQFIEKTCPGATSRFTMNFLILYSFIPALVILGIVVFKIRDHLISR
For B2, the expression_or_secretion ([2]; control: WT-ABCG5) was “decreases”.

B3: ABCG5: N584Q/N591Q (protein)
parent chain: MGDLSSLTPGGSMGLQVNRGSQSSLEGAPATAPEPHSLGILHASYSVSHRVRPWWDITSCRQQWTRQILKDVSLYVESGQIMCILGSSGSGKTTLLDAMSGRLGRAGTFLGEVYVNGRALRREQFQDCFSYVLQSDTLLSSLTVRETLHYTALLAIRRGNPGSFQKKVEAVMAELSLSHVADRLIGNYSLGGISTGERRRVSIAAQLLQDPKVMLFDEPTTGLDCMTANQIVVLLVELARRNRIVVLTIHQPRSELFQLFDKIAILSFGELIFCGTPAEMLDFFNDCGYPCPEHSNPFDFYMDLTSVDTQSKEREIETSKRVQMIESAYKKSAICHKTLKNIERMKHLKTLPMVPFKTKDSPGVFSKLGVLLRRVTRNLVRNKLAVITRLLQNLIMGLFLLFFVLRVRSNVLKGAIQDRVGLLYQFVGATPYTGMLNAVNLFPVLRAVSDQESQDGLYQKWQMMLAYALHVLPFSVVATMIFSSVCYWTLGLHPEVARFGYFSAALLAPHLIGEFLTLVLLGIVQNPNIVNSVVALLSIAGVLVGSGFLRNIQEMPIPFKIISYFTFQKYCSEILVVNEFYGLNFTCGSSNVSVTTNPMCAFTQGIQFIEKTCPGATSRFTMNFLILYSFIPALVILGIVVFKIRDHLISR
With B3 the expression_or_secretion ([2]; control: WT-ABCG5) was “decreases”.

B4: ABCG5: N591Q (protein)
parent chain: MGDLSSLTPGGSMGLQVNRGSQSSLEGAPATAPEPHSLGILHASYSVSHRVRPWWDITSCRQQWTRQILKDVSLYVESGQIMCILGSSGSGKTTLLDAMSGRLGRAGTFLGEVYVNGRALRREQFQDCFSYVLQSDTLLSSLTVRETLHYTALLAIRRGNPGSFQKKVEAVMAELSLSHVADRLIGNYSLGGISTGERRRVSIAAQLLQDPKVMLFDEPTTGLDCMTANQIVVLLVELARRNRIVVLTIHQPRSELFQLFDKIAILSFGELIFCGTPAEMLDFFNDCGYPCPEHSNPFDFYMDLTSVDTQSKEREIETSKRVQMIESAYKKSAICHKTLKNIERMKHLKTLPMVPFKTKDSPGVFSKLGVLLRRVTRNLVRNKLAVITRLLQNLIMGLFLLFFVLRVRSNVLKGAIQDRVGLLYQFVGATPYTGMLNAVNLFPVLRAVSDQESQDGLYQKWQMMLAYALHVLPFSVVATMIFSSVCYWTLGLHPEVARFGYFSAALLAPHLIGEFLTLVLLGIVQNPNIVNSVVALLSIAGVLVGSGFLRNIQEMPIPFKIISYFTFQKYCSEILVVNEFYGLNFTCGSSNVSVTTNPMCAFTQGIQFIEKTCPGATSRFTMNFLILYSFIPALVILGIVVFKIRDHLISR
For B4, the expression_or_secretion ([2]; control: WT-ABCG5) was “decreases”.
